Molecular target: T1, human programmed death ligand 1 (PD-L1) (human, UniProt Q9NZQ7 19-290)
T1 construct: Endogenous PD-L1 on tumor, stromal and inflammatory cells in formalin-fixed, paraffin-embedded tumor tissue sections; 22C3 is described as an anti-human PD-L1 antibody; also called mature PD-L1; hPD-L1
Experiment: IHC on FFPE NSCLC tissue section

T1 sequence (Q9NZQ7 19-290): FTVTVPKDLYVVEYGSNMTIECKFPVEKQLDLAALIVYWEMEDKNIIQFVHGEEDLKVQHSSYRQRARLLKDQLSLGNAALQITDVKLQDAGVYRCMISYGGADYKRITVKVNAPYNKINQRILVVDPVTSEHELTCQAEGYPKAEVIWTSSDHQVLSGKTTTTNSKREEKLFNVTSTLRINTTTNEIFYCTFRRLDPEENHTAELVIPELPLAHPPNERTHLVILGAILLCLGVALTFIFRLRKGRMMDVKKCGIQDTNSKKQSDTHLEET

B1: monoclonal antibody 22C3 (antibody, V domains shown)
VH: QVHLQQSGAELAKPGASVKMSCKASGYTFTSYWIHWIKQRPGQGLEWIGYINPSSGYHEYNQKFIDKATLTADRSSSTAYMHLTSLTSEDSAVYYCARSGWLIHGDYYFDFWGQGTTLTVSS
VL: DIVMSQSPSSLAVSAGEKVTMTCKSSQSLLHTSTRKNYLAWYQQKPGQSPKLLIYWASTRESGVPDRFTGSGSGTDFTLTISSVQAEDLAVYYCKQSYDVVTFGAGTKLELK
notes: Whole hybridoma antibody used as primary antibody in IHC; also called MEB037.22C3; PD-L1 22C3 antibody
  binding result: binds
